Measurements taken from the supplement of paper PMC12458215.
± gives the uncertainty stated by the source.

Test system: HEK293T
Assay: plasma membrane surface immunostaining intensity (anti-HA, deep receptor scanning) (arbitrary fluorescence units); higher = higher plasma membrane expression

Q: “MQMADAATIATMNKAAGGDKLAELFSLVPDLLEAANTSGNASLQLPDLWWELGLELPDGAPPGHPPGSGGAESADTEARVRILISVVYWVVCALGLAGNLLVLYLMKSMQGWRKSSINLFVTNLALTDFQFVLTLPFWAVENALDFKWPFGKAMCKIVSMVTSMNMYASVFFLTAMSVTRYHSVASALKSHRTRGHGRGDCCGRSLGDSCCFSAKALCVWIWALAALASLPSAIFSTTVKVMGEELCLVRFPDKLLGRDRQFWLGLYHSQKVLLGFVLPLGIIILCYLLLVRFIADRRAAGTKGGAAVAGGRPTGASARRLSKVTKSVTIVVLSFFLCWLPNQALTTWSILIKFNAVPFSQEYFLCQVYAFPVSVCLAHSNSCLNPVLYCLVRREFRKALKSLLWRIASPSITSMRPFTATTKPEHEDQGLQAPAPPHAAAEPDLLYYPPGVVVYSGGRYDLLPSSSAY [RXFP3]” was tested. Which “plasma membrane surface immunostaining intensity” value (GPCR class: A) did it give?
A: 979 ± 290

Q: How did the “plasma membrane surface immunostaining intensity” value (GPCR class: F) turn out when “MEWGYLLEVTSLLAALALLQRSSGAAAASAKELACQEITVPLCKGIGYNYTYMPNQFNHDTQDEAGLEVHQFWPLVEIQCSPDLKFFLCSMYTPICLEDYKKPLPPCRSVCERAKAGCAPLMRQYGFAWPDRMRCDRLPEQGNPDTLCMDYNRTDLTTAAPSPPRRLPPPPPGEQPPSGSGHGRPPGARPPHRGGGRGGGGGDAAAPPARGGGGGGKARPPGGGAAPCEPGCQCRAPMVSVSSERHPLYNRVKTGQIANCALPCHNPFFSQDERAFTVFWIGLWSVLCFVSTFATVSTFLIDMERFKYPERPIIFLSACYLFVSVGYLVRLVAGHEKVACSGGAPGAGGAGGAGGAAAGAGAAGAGAGGPGGRGEYEELGAVEQHVRYETTGPALCTVVFLLVYFFGMASSIWWVILSLTWFLAAGMKWGNEAIAGYSQYFHLAAWLVPSVKSIAVLALSSVDGDPVAGICYVGNQSLDNLRGFVLAPLVIYLFIGTMFLLAGFVSLFRIRSVIKQQDGPTKTHKLEKLMIRLGLFTVLYTVPAAVVVACLFYEQHNRPRWEATHNCPCLRDLQPDQARRPDYAVFMLKYFMCLVVGITSGVWVWSGKTLESWRSLCTRCCWASKGAAVGGGAGATAAGGGGGPGGGGGGGPGGGGGPGGGGGSLYSDVSTGLTWRSGTASSVSYPKQMPLSQV [FZD8]” was run?
A: 225 ± 23

Q: How did the “plasma membrane surface immunostaining intensity” value (GPCR class: A) turn out when “MFGLFGLWRTFDSVVFYLTLIVGLGGPVGNGLVLWNLGFRIKKGPFSIYLLHLAAADFLFLSCRVGFSVAQAALGAQDTLYFVLTFLWFAVGLWLLAAFSVERCLSDLFPACYQGCRPRHASAVLCALVWTPTLPAVPLPANACGLLRNSACPLVCPRYHVASVTWFLVLARVAWTAGVVLFVWVTCCSTRPRPRLYGIVLGALLLLFFCGLPSVFYWSLQPLLNFLLPVFSPLATLLACVNSSSKPLIYSGLGRQPGKREPLRSVLRRALGEGAELGARGQSLPMGLL [MRGPRG]” was run?
A: 115 ± 15

Q: Which “plasma membrane surface immunostaining intensity” value (GPCR class: B) does the source give for “MQGPLLLPGLCFLLSLFGAVTQKTKTSCAKCPPNASCVNNTHCTCNHGYTSGSGQKLFTFPLETCNDINECTPPYSVYCGFNAVCYNVEGSFYCQCVPGYRLHSGNEQFSNSNENTCQDTTSSKTTEGRKELQKIVDKFESLLTNQTLWRTEGRQEISSTATTILRDVESKVLETALKDPEQKVLKIQNDSVAIETQAITDNCSEERKTFNLNVQMNSMDIRCSDIIQGDTQGPSAIAFISYSSLGNIINATFFEEMDKKDQVYLNSQVVSAAIGPKRNVSLSKSVTLTFQHVKMTPSTKKVFCVYWKSTGQGSQWSRDGCFLIHVNKSHTMCNCSHLSSFAVLMALTSQEEDPVLTVITYVGLSVSLLCLLLAALTFLLCKAIRNTSTSLHLQLSLCLFLAHLLFLVGIDRTEPKVLCSIIAGALHYLYLAAFTWMLLEGVHLFLTARNLTVVNYSSINRLMKWIMFPVGYGVPAVTVAISAASWPHLYGTADRCWLHLDQGFMWSFLGPVCAIFSANLVLFILVFWILKRKLSSLNSEVSTIQNTRMLAFKATAQLFILGCTWCLGLLQVGPAAQVMAYLFTIINSLQGFFIFLVYCLLSQQVQKQYQKWFREIVKSKSESETYTLSSKMGPDSKPSEGDVFPGQVKRKY [ADGRE3]” here?
A: 344 ± 13

Q: For “MARPDPSAPPSLLLLLLAQLVGRAAAASKAPVCQEITVPMCRGIGYNLTHMPNQFNHDTQDEAGLEVHQFWPLVEIQCSPDLRFFLCSMYTPICLPDYHKPLPPCRSVCERAKAGCSPLMRQYGFAWPERMSCDRLPVLGRDAEVLCMDYNRSEATTAPPRPFPAKPTLPGPPGAPASGGECPAGGPFVCKCREPFVPILKESHPLYNKVRTGQVPNCAVPCYQPSFSADERTFATFWIGLWSVLCFISTSTTVATFLIDMERFRYPERPIIFLSACYLCVSLGFLVRLVVGHASVACSREHNHIHYETTGPALCTIVFLLVYFFGMASSIWWVILSLTWFLAAGMKWGNEAIAGYAQYFHLAAWLIPSVKSITALALSSVDGDPVAGICYVGNQNLNSLRGFVLGPLVLYLLVGTLFLLAGFVSLFRIRSVIKQGGTKTDKLEKLMIRIGIFTLLYTVPASIVVACYLYEQHYRESWEAALTCACPGHDTGQPRAKPEYWVLMLKYFMCLVVGITSGVWIWSGKTVESWRRFTSRCCCRPRRGHKSGGAMAAGDYPEASAALTGRTGPPGPAATYHKQVSLSHV [FZD5]”, which “plasma membrane surface immunostaining intensity” value (GPCR class: F) is on record?
A: 4020 ± 200

Q: “MEAGNQTGFLEFILLGLSEDPELQPFIFGLFLSMYLVTVLGNLLIILAISSDSHLHTPMYFFLSNLSWVDICFSTCIVPKMLVNIQTENKAISYMDCLTQVYFSMFFPILDTLLLTVMAYDRFVAVCHPLHYMIIMNPHLCGLLVFVTWLIGVMTSLLHISLMMHLIFCKDFEIPHFFCELTYILQLACSDTFLNSTLIYFMTGVLGVFPLLGIIFSYSRIASSIRKMSSSGGKQKALSTCGSHLSVVSLFYGTGIGVHFTSAVTHSSQKISVASVMYTVVTPMLNPFIYSLRNKDVKGALGSLLSRAASCL [OR7D2]” was tested. Which “plasma membrane surface immunostaining intensity” value (GPCR class: A (Olfactory)) did it give?
A: 118 ± 23

Q: “MDLPPQLSFGLYVAAFALGFPLNVLAIRGATAHARLRLTPSLVYALNLGCSDLLLTVSLPLKAVEALASGAWPLPASLCPVFAVAHFFPLYAGGGFLAALSAGRYLGAAFPLGYQAFRRPCYSWGVCAAIWALVLCHLGLVFGLEAPGGWLDHSNTSLGINTPVNGSPVCLEAWDPASAGPARFSLSLLLFFLPLAITAFCYVGCLRALARSGLTHRRKLRAAWVAGGALLTLLLCVGPYNASNVASFLYPNLGGSWRKLGLITGAWSVVLNPLVTGYLGRGPGLKTVCAARTQGGKSQK [FFAR1]” was tested. Which “plasma membrane surface immunostaining intensity” value (GPCR class: A) did it give?
A: 265 ± 37

Q: “MINSTSTQPPDESCSQNLLITQQIIPVLYCMVFIAGILLNGVSGWIFFYVPSSKSFIIYLKNIVIADFVMSLTFPFKILGDSGLGPWQLNVFVCRVSAVLFYVNMYVSIVFFGLISFDRYYKIVKPLWTSFIQSVSYSKLLSVIVWMLMLLLAVPNIILTNQSVREVTQIKCIELKSELGRKWHKASNYIFVAIFWIVFLLLIVFYTAITKKIFKSHLKSSRNSTSVKKKSSRNIFSIVFVFFVCFVPYHIARIPYTKSQTEAHYSCQSKEILRYMKEFTLLLSAANVCLDPIIYFFLCQPFREILCKKLHIPLKAQNDLDISRIKRGNTTLESTDTL [P2RY14]” was tested. Which “plasma membrane surface immunostaining intensity” value (GPCR class: A) did it give?
A: 5190 ± 71

Q: For “MTAAIRRQRELSILPKVTLEAMNTTVMQGFNRSERCPRDTRIVQLVFPALYTVVFLTGILLNTLALWVFVHIPSSSTFIIYLKNTLVADLIMTLMLPFKILSDSHLAPWQLRAFVCRFSSVIFYETMYVGIVLLGLIAFDRFLKIIRPLRNIFLKKPVFAKTVSIFIWFFLFFISLPNTILSNKEATPSSVKKCASLKGPLGLKWHQMVNNICQFIFWTVFILMLVFYVVIAKKVYDSYRKSKSKDRKNNKKLEGKVFVVVAVFFVCFAPFHFARVPYTHSQTNNKTDCRLQNQLFIAKETTLFLAATNICMDPLIYIFLCKKFTEKLPCMQGRKTTASSQENHSSQTDNITLG [P2RY13]”, which “plasma membrane surface immunostaining intensity” value (GPCR class: A) is on record?
A: 239 ± 12

Q: For “MSGDNSSSLTPGFFILNGVPGLEATHIWISLPFCFMYIIAVVGNCGLICLISHEEALHRPMYYFLALLSFTDVTLCTTMVPNMLCIFWFNLKEIDFNACLAQMFFVHMLTGMESGVLMLMALDRYVAICYPLRYATILTNPVIAKAGLATFLRNVMLIIPFTLLTKRLPYCRGNFIPHTYCDHMSVAKVSCGNFKVNAIYGLMVALLIGVFDICCISVSYTMILQAVMSLSSADARHKAFSTCTSHMCSIVITYVAAFFTFFTHRFVGHNIPNHIHIIVANLYLLLPPTMNPIVYGVKTKQIQEGVIKFLLGDKVSFTYDK [OR52N2]”, which “plasma membrane surface immunostaining intensity” value (GPCR class: A (Olfactory)) is on record?
A: 157 ± 54

Q: For “MGGRVFLAFCVWLTLPGAETQDSRGCARWCPQNSSCVNATACRCNPGFSSFSEIITTPTETCDDINECATPSKVSCGKFSDCWNTEGSYDCVCSPGYEPVSGAKTFKNESENTCQDVDECQQNPRLCKSYGTCVNTLGSYTCQCLPGFKFIPEDPKVCTDVNECTSGQNPCHSSTHCLNNVGSYQCRCRPGWQPIPGSPNGPNNTVCEDVDECSSGQHQCDSSTVCFNTVGSYSCRCRPGWKPRHGIPNNQKDTVCEDMTFSTWTPPPGVHSQTLSRFFDKVQDLGRDSKTSSAEVTIQNVIKLVDELMEAPGDVEALAPPVRHLIATQLLSNLEDIMRILAKSLPKGPFTYISPSNTELTLMIQERGDKNVTMGQSSARMKLNWAVAAGAEDPGPAVAGILSIQNMTTLLANASLNLHSKKQAELEEIYESSIRGVQLRRLSAVNSIFLSHNNTKELNSPILFAFSHLESSDGEAGRDPPAKDVMPGPRQELLCAFWKSDSDRGGHWATEGCQVLGSKNGSTTCQCSHLSSFAILMAHYDVEDWKLTLITRVGLALSLFCLLLCILTFLLVRPIQGSRTTIHLHLCICLFVGSTIFLAGIENEGGQVGLRCRLVAGLLHYCFLAAFCWMSLEGLELYFLVVRVFQGQGLSTRWLCLIGYGVPLLIVGVSAAIYSKGYGRPRYCWLDFEQGFLWSFLGPVTFIILCNAVIFVTTVWKLTQKFSEINPDMKKLKKARALTITAIAQLFLLGCTWVFGLFIFDDRSLVLTYVFTILNCLQGAFLYLLHCLLNKKVREEYRKWACLVAGGSKYSEFTSTTSGTGHNQTRALRASESGI [ADGRE5]”, which “plasma membrane surface immunostaining intensity” value (GPCR class: B) is on record?
A: 6420 ± 110

Q: For “MGSFNTSFEDGFILVGFSDWPQLEPILFVFIFIFYSLTLFGNTIIIALSWLDLRLHTPMYFFLSHLSLLDLCFTTSTVPQLLINLCGVDRTITRGGCVAQLFIYLALGSTECVLLVVMAFDRYAAVCRPLHYMAIMHPHLCQTLAIASWGAGFVNSLIQTGLAMAMPLCGHRLNHFFCEMPVFLKLACADTEGTEAKMFVARVIVVAVPAALILGSYVHIAHAVLRVKSTAGRRKAFGTCGSHLLVVFLFYGSAIYTYLQSIHNYSEREGKFVALFYTIITPILNPLIYTLRNKDVKGALWKVLWRGRDSG [OR2Y1]”, which “plasma membrane surface immunostaining intensity” value (GPCR class: A (Olfactory)) is on record?
A: 132 ± 17

Q: Which “plasma membrane surface immunostaining intensity” value (GPCR class: A) does the source give for “MDHQDPYSVQATAAIAAAITFLILFTIFGNALVILAVLTSRSLRAPQNLFLVSLAAADILVATLIIPFSLANELLGYWYFRRTWCEVYLALDVLFCTSSIVHLCAISLDRYWAVSRALEYNSKRTPRRIKCIILTVWLIAAVISLPPLIYKGDQGPQPRGRPQCKLNQEAWYILASSIGSFFAPCLIMILVYLRIYLIAKRSNRRGPRAKGGPGQGESKQPRPDHGGALASAKLPALASVASAREVNGHSKSTGEKEEGETPEDTGTRALPPSWAALPNSGQGQKEGVCGASPEDEAEEEEEEEEEEEECEPQAVPVSPASACSPPLQQPQGSRVLATLRGQVLLGRGVGAIGGQWWRRRAQLTREKRFTFVLAVVIGVFVLCWFPFFFSYSLGAICPKHCKVPHGLFQFFFWIGYCNSSLNPVIYTIFNQDFRRAFRRILCRPWTQTAW [ADRA2B]” here?
A: 6390 ± 13

Q: Which “plasma membrane surface immunostaining intensity” value (GPCR class: A) does the source give for “MAANVSGAKSCPANFLAAADDKLSGFQGDFLWPILVVEFLVAVASNGLALYRFSIRKQRPWHPAVVFSVQLAVSDLLCALTLPPLAAYLYPPKHWRYGEAACRLERFLFTCNLLGSVIFITCISLNRYLGIVHPFFARSHLRPKHAWAVSAAGWVLAALLAMPTLSFSHLKRPQQGAGNCSVARPEACIKCLGTADHGLAAYRAYSLVLAGLGCGLPLLLTLAAYGALGRAVLRSPGMTVAEKLRVAALVASGVALYASSYVPYHIMRVLNVDARRRWSTRCPSFADIAQATAALELGPYVGYQVMRGLMPLAFCVHPLLYMAAVPSLGCCCRHCPGYRDSWNPEDAKSTGQALPLNATAAPKPSEPQSRELSQ [P2RY11]” here?
A: 4350 ± 520
